Reference: patent US20140050727A1 (MOCHIDA PHARMACEUTICAL, published 2014)

Key:
Assay in all cases: competitive EIA on immobilized 356(CHO) with HRP-labeled F1024 antibody
[1] = target: T1, amino acid-substituted soluble human CD14 P294H (human, UniProt P08571 20-345)
T1 construct: mature; Expressed in COS-1, purified on a 3C10 column
T1 sequence (looked up): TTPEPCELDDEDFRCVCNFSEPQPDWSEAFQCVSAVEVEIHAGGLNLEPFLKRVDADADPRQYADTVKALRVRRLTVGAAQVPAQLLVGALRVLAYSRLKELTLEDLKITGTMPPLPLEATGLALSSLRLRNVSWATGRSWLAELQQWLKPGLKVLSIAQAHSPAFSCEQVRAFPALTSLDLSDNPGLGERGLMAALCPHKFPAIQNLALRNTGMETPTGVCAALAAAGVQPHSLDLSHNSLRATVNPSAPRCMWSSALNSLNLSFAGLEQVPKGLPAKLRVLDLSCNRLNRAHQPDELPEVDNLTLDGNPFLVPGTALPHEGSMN
Procedure: (§1) A competitive experiment was conducted by the following procedure to confirm the reactivity of each soluble human amino acid-substituted CD14 with the F1024 antibody. […] After allowing to stand overnight at 4° C. and washing 3 times with the PBS containing 0.05% Tween 20, 200 μL/well of PBS⁻ containing 2% StabilGuard (SurModics, Inc.) was added to the well, and the solution was incubated at 37° C. for 30 minutes and stored at 4° C. In the meanwhile, amino acid-substituted soluble human CD14 that had been purified in Example 6-3) was diluted to 2 to 0.02 μg/mL with PBS⁻ containing 0.1% BSA. HRP-labeled F1024 antibody was diluted to 2 μg/mL with PBS⁻ containing 0.1% BSA, and the diluted HRP-labeled F1024 antibody was mixed with an equal amount of the human amino acid-substituted CD14 (25 μL+25 μL). Next, the solution was discarded from the wells of the plate having the soluble CD14 immobilized, and 50 μL/well of a mixed solution of amino acid-substituted CD14 and HRP-labeled F1024 was added. After the incubation at 37° C. for 2 hours, the plate was washed 5 times with PBS⁻ containing 0.05% Tween 20, and 50 μL/well of TMB solution (BioFX) was added to the well as the chromogenic substrate. The reaction was allowed to proceed at room temperature for 5 minutes, the reaction was terminated by adding 50 μL/well of 1M hydrochloric acid solution. Absorbance at 450 nm was measured with a plate spectrophotometer.

[2] = target: T2, amino acid-substituted soluble human CD14 P294/296A (human, UniProt P08571 20-345)
T2 construct: mature; Expressed in COS-1, purified on a 3C10 column
T2 sequence (looked up): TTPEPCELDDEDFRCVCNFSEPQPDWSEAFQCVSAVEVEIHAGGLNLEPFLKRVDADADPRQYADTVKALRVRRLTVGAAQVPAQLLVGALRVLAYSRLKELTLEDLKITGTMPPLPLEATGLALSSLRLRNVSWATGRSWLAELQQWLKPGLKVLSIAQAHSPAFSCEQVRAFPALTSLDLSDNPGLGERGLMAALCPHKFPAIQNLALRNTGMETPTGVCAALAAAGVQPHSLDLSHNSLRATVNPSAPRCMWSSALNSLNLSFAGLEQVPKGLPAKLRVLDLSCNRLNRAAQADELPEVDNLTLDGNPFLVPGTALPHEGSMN
Procedure: as §1

[3] = target: T3, amino acid-substituted soluble human CD14 Q295A (human, UniProt P08571 20-345)
T3 construct: mature; Expressed in COS-1, purified on a 3C10 column
T3 sequence (looked up): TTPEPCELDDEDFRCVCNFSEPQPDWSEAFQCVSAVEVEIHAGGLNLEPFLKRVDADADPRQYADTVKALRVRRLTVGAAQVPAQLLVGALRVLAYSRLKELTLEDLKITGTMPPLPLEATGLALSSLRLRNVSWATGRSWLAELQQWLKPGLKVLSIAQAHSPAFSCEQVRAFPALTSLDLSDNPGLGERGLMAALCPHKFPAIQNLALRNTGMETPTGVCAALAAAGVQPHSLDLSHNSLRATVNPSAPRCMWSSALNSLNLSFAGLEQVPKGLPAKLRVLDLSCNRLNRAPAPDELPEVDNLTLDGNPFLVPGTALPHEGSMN
Procedure: as §1

binding result [1]: no binding (tested: 2 to 0.02 µg/mL) | binding result [2]: no binding (tested: 2 to 0.02 µg/mL) | binding result [3]: no binding (tested: 2 to 0.02 µg/mL)
B1: F1024 antibody (antibody, V domains shown)
VH: QIQLVQSGPELKKPGESVKISCKASGYTFTDYAMNWVKQAPGNGLKWMGWINTQTGKPTYADDFKQRFVFSLETSASTAYLQINNLNIEDTATYFCTRSTFYYSSYIYGWYFDFWGPGTSVTVSS
VL: DIVMTQSPTSISISVGERVTMNCKASQNVGSNVDWYQQKTGQSPKLLIYKASNRYTGVPDRFTGSGSGTDFTFTISNMQAVDLAVYYCMQSNTNPPWTFGGGTKLELKRT
notes: also called antibody F1024; F1024-1-3 rat antibody
